First the molecules themselves.
B1: CPEB3 Ribozyme (parent)
chain: UAACAGGGGGCCACAGCAGAAGCGUUCACGUCGCAGCCCCUGUCAGAUUCUGGUGAAUCUGCGAAUUCUGCUGUAUAUCUC

This data set covers variants of B1. Description: self-cleavage, relative activity (ratio to wild type); higher = more cleavage; in vitro, sequencing. Put shortly:
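After error-prone PCR and barcoding, CPEB3 ribozyme mutant libraries were transcribed with T7 RNA polymerase at 37°C for 5 hours, then given 15 min with DNase I before an EDTA stop, and they cleaved during both steps. Reverse transcription with template switching preceded Illumina sequencing. Relative activity divides a variant's cleaved/total read fraction by the unmutated ribozyme's. At least 5 reads were required per variant, and three batches were averaged.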
Turning to UAGCAGGGGGCCACAGCAGAAGCGUUCACGUCGCAGCCCCUGUCAGACUCUGGUGAAUCUGCGAAUUCUGCUGUAUAUCUC [A3G U48C], the self-cleavage worked out at 0.61.
For the variant UAACAGGGGGCCACAGCAGACGCGUUCACGUCGCAGCCCCUGCCAGAUUCUGGUGAAUCUGCGAAUUCUGCUGUAUAUCUC [A21C U43C], the self-cleavage stood at 0.19.
Next, UAACAGGGGGCCACAGCAGAAGCGUUCACGUCGCCGCCCCUGUCAGAUUCUGGUGUAUCUGCGAAUUCUGCUGUAUAUCUC [A35C A56U]: 0.53; UAACAGGGGGCCACAUCAGAAGCGUUCACGUCGCAGCCCCUGUCAGAUUCUGGUGAAUCGGCGAAUUCUGCUGUAUAUCUC [G16U U60G]: 0.21.
The value for UAACAGGGGGCCACAGCAGAAGCGUUCACGUCGCAGCCCCUGUCAGAAUCUGGUGAAUCUGCGAAUCCUGCUGUAUAUCUC [U48A U67C] was 0.25; that for UAACAUGGGGCCACAGCAGAAGCGUUCACGUCGCAGCCCCUGUCAGAUUCUGGUGAAUCUGCGAAUUCUGAUGUAUAUCUC [G6U C71A] was 0.16.
With UAACAGGGGGCCACAGCAGAAGCGUUCACGUCGCGGCCCCUGUCAGCUUCUGGUGAAUCUGCGAAUUCUGCUGUAUAUCUC [A35G A47C], the self-cleavage is 1.3.
With UAACAGGGGGCCACAGCAGAAGCGUUCACGUCGCAGCCCCAGUCAGAUUCGGGUGAAUCUGCGAAUUCUGCUGUAUAUCUC [U41A U51G], the self-cleavage amounted to 0.42.
For the variant UAACGGGGGGCCACAGCAGAAGCGUUCACGUCGCAGCCCCUGUCAGAUUCUGGUGAAUCUGCGAAUUCUGCCGUAUAUCUC [A5G U72C], the self-cleavage was 0.77.
UAACAGGGGGCCACAGCGGAAGCGUUCACGUCGCAGCCCCUGUCAGAUUCUGGUGAAUAUGCGAAUUCUGCUGUAUAUCUC [A18G C59A]: the self-cleavage was 0.23.
Regarding UAACAGGGGGCCACAGCAGAAGCGUUCACGUGGCAGCCCCUGUCAGAUUCUGGUGAAUCUGCGAAUUCUGCCGUAUAUCUC [C32G U72C], the self-cleavage worked out at 0.11.
The value for UAACAGGGGGCCACAGCAGAAGCGUUCACGUCGCAGCCCCUGUCAGAUUCUGGUGAAGCUGCAAAUUCUGCUGUAUAUCUC [U58G G63A] was 0.45; that for UAACAGGGGGCCACAGCAGAAGCGUUCACGUCGCAGCCCCUGCCAGAUUCUGGUGAAUCUGCGAGUUCUGCUGUAUAUCUC [U43C A65G] was 0.31; that for UAACAGGGGGCCACGGCAGAAGCGUUCACGUCGCAGCCCCUGUCAGAUUCUGGUGAAUCUGCGAAUUCUGCUGGAUAUCUC [A15G U74G] was 1.14.
As to UAACAGGGGGCCACAGCAGAAGCGUUCACGUCGCAGCCCCUGUCUGAUUCUGGUGAAUCUGCGAAUUCUGCUUUAUAUCUC [A45U G73U], the self-cleavage worked out at 1.2.
As to UAACAGGGGGCCACAGCAGAAGCGUUCACGUCGCAGCCCCUGUCAGAUUCUGGUGAAUCUGCGAAUUAUGCAGUAUAUCUC [C68A U72A], the self-cleavage amounted to 0.4.
In the case of UAACAGGGGGCCACAGCAGAAGCGUUCACGUCGCAGCCCUUGUCAGAUUCUGGUGAAUCUGCGAAUUCUGCUGUACAUCUC [C40U U76C], the self-cleavage was found to be 0.92.
UAACAGGGGGCCACAGCAGAAACGUUCACGUCGCAGCCCCUGUCAGAUUCUGGUGAAUCUGCGAAUUCUGCCGUAUAUCUC [G22A U72C]: the self-cleavage was 0.23.
In the case of UAACAGGGGGCCACCGCAGAAGCGUUCACGUCGCAGCCCCAGUCAGAUUCUGGUGAAUCUGCGAAUUCUGCUGUAUAUCUC [A15C U41A], the self-cleavage was found to be 0.22.
As for UAACAGGGGGCCACAGCAGAAGCGUUCACGUCGCAGACCCUGUCAGAUUCUGGUGAAUCUGCGAGUUCUGCUGUAUAUCUC [C37A A65G], the self-cleavage worked out at 0.16.
As for UAUCAGGGGGCCACGGCAGAAGCGUUCACGUCGCAGCCCCUGUCAGAUUCUGGUGAAUCUGCGAAUUCUGCUGUAUAUCUC [A3U A15G], the self-cleavage worked out at 0.83.
In the case of UAACAGGGGGCCGCAGCAGAAGCGUUCACGUCGCAGCCCCUGUCAGAUUCUGGUGAAUGUGCGAAUUCUGCUGUAUAUCUC [A13G C59G], the self-cleavage amounted to 0.24.
With UAACAGGGGGCCACAGCAGAAGCGUACACGUCGCGGCCCCUGUCAGAUUCUGGUGAAUCUGCGAAUUCUGCUGUAUAUCUC [U26A A35G], the self-cleavage was 1.29.
Consider UAACAGGGGGCCACAGCAGAAGCGUUCACGUCGCAGCCCCUGUCAGAUUCUGAUGGAUCUGCGAAUUCUGCUGUAUAUCUC [G53A A56G], for which the self-cleavage stood at 1.
Consider UACCAGGGGGCCACGGCAGAAGCGUUCACGUCGCAGCCCCUGUCAGAUUCUGGUGAAUCUGCGAAUUCUGCUGUAUAUCUC [A3C A15G], for which the self-cleavage is 1.03.
As to UAACAGGGGGCCACAGCAGAGGCGUUCACGUCGCAGCCCCUGUCAGAUUCUAGUGAAUCUGCGAAUUCUGCUGUAUAUCUC [A21G G52A], the self-cleavage was determined as 0.72.
Take UAACAGGGGGCCACAGCAGAAGCGUUCACGUCGCAGCCCCUGUCAGAUUCUGGUGAAACUGCGAAUUCUGCGGUAUAUCUC [U58A U72G]: the self-cleavage was 0.42.
For UAACAGGGGGCCACAGCAGAAGCGUUCACGUCUCAGCCCCUGUCAGAUUCUGGUGAAUCUGCGAAUUCUGCUGUAUAUCAC [G33U U80A], the self-cleavage worked out at 0.25.
As for UAACAGGGGGCCACCGCAGAAGCGUUCACGUCGCAGCCCCUGUCAGAUUCUGGUGAAUCUGCGAAUCCUGCUGUAUAUCUC [A15C U67C], the self-cleavage is 0.18.
For CAACAGGGGGCCACAGCAGAAGCGUUCACGUCGCAGCCCCUGUCAGAUUCUGGUGAAUCUGCGAAUUCUGCUGUAUAUCUC [U1C], the self-cleavage was 0.84.
Consider UAACAGGGGGCCACAGCAGAAGCGUUCACGUCGCAGCCCCUGUCAGAUUCCGGUGAAUCUGCGAAUUCUACUGUAUAUCUC [U51C G70A], for which the self-cleavage worked out at 0.47.
The value for UAACGGGGGGCCACAGCAGAAGCGUUCACGUCGCAGCCCCUGUCAGAUUCUGGUGAAUCUGCGGAUUCUGCUGUAUAUCUC [A5G A64G] was 0.58; that for UAACAGGGGGCCACAGCAGAAGCGUUCACGUCGCAGCCCCUGUCAGAUUCUGGUGAAUCUGCGGAUUCUACUGUAUAUCUC [A64G G70A] was 0.37; that for UAACAGGGGGCCACAGCAGAAGCGUUCACGUUGCAGCCCCUGUCAGUUUCUGGUGAAUCUGCGAAUUCUGCUGUAUAUCUC [C32U A47U] was 0.32.

The values above are taken from the RNAGym collection of RNA variant scans (doi:10.1093/nar/gkz1192).
